Publication PMC6620605 (Current biology : CB, 2019)

Target: T1, 6x His-SEPT9 (human septin 9, isoform 1 / isoform a) (human, UniProt Q9UHD8-1 1-586)
T1 sequence (looked up): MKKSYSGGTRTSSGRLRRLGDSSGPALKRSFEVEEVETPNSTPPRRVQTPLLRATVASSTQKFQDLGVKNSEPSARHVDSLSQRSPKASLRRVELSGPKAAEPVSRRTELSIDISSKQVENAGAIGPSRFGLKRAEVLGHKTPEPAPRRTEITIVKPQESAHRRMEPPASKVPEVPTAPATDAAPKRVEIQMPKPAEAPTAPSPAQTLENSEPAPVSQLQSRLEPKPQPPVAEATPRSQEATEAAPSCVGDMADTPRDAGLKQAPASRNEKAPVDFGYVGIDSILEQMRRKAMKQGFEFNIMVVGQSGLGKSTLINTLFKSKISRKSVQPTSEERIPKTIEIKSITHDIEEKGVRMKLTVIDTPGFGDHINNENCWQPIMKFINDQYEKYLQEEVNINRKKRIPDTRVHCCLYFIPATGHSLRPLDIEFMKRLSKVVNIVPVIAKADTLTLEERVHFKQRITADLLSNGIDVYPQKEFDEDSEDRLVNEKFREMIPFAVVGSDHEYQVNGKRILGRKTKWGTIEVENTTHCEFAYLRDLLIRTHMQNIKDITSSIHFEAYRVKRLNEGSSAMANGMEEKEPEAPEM
Experiment: pull-down

binding result: binds
B1: GST-TSG101 UEV (TSG101 aa 1-145) (domain or fragment, human, UniProt Q99816-1 1-145, looked up)
chain: MAVSESQLKKMVSKYKYRDLTVRETVNVITLYKDLKPVLDSYVFNDGSSRELMNLTGTIPVPYRGNTYNIPICLWLLDTYPYNPPICFVKPTSSMTIKTGKHVDANGKIYLPYLHEWKHPQSDLLGLIQVMIVVFGDEPPVFSRP
